Here are results for 19 molecules from patent publication US20250250357A1 (NANJING ZAIMING PHARMACEUTICAL, published 2025).

First the molecules themselves.
B1: S009-F7.69.8 (antibody, human IgG1, kappa, V domains shown)
VH: EVHLQQSGPELVKPGASVRIPCKASGYTFTDYNMDWVKQSHGKSLEWIGDINPDNGGTIYTQKFKGKATLTVDKSSSTAYMELRSLTSEDTAVYYCARRLHYYGSSGLDYWGQGTTLTVSS
VL: DIQMTQSPASLSAYVGETVTITCRASGNIHNYLAWYQQKQGKSPQLLVYNAKTLADGVPSRFSGSGSGTQYSLKINSLQPEDFGSYYCQHFWSTVWTFGGGTKLEIKR
notes: human-murine chimeric antibody, human IgG1/kappa constant regions
B2: S009-F7.41.18 (antibody, human IgG1, kappa, V domains shown)
VH: QVQLQQPGTELVKPGASVKLSCKASDYTFTSYWMHWVKQRPGQGLEWIGSINPSNGDTYYNEKFKNKATLTVDKSSSTAYMQLSSLTSDDSAVYYCARGWYFDVWGTGTTVTVSS
VL: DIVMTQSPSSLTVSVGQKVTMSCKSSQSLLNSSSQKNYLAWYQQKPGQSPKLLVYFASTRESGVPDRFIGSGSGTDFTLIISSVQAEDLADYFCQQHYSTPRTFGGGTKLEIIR
notes: as for B1
B3: S009-F7.67.12 (antibody, human IgG1, kappa, V domains shown)
VH: QVQLQQPGTELVKPGASVRLSCRASGYSFSSYWMHWVKQRPGQGLEWLGNINPTTGDINYNEKFRNRATLAVDKSSTTAYLQLTSLTSEDSAVYFCVRHDGFLWGQGTTLTVSS
VL: DIQMTQSPASLSASVGETVTITCRASENIYSYLAWYQQKQGKSPQLLVYYAKTLAEGVSSRFSGSGSGTQFSLKINSLQPEDFGTYYCQHQFGTPRTFGGGTKLEIRR
notes: as for B1
B4: S009-F7.66.12 (antibody, human IgG1, kappa, V domains shown)
VH: QIPLQQSGPELVKPGASVRISCKASDYAFSSSWMNWVKQRPEKGLEWIGRIFVESGNTHYNDKFNGKATLTADKSSRTAYIQLSSLTSEDSAVYFCTRENIFYHGHSSWFAYWGQGTLVTVSA
VL: DIVLTQSPASLVVSLGQRATISCRAGESVDDFGISYVHWYQQKPGQPPKLLIYRAANLESGIPARFSGSGSRTDFTLTINPVETDDVAIYYCQQNNKDPFTFGSGTKLEIKR
notes: as for B1
B5: S009-F7.53.2 (antibody, human IgG1, kappa, V domains shown)
VH: EVQLQQSGPELVKPGASVKIPCKTSGYTFTDYNMDWVKQSHGKSLEWIGDINPNTDGAIYNQKFQNKATLTVDKSSSTAYMELRSLTSEDTAVYYCTRRKLGRKFFDYWGQGTTLTVSS
VL: QIVLTQSPAIMSASPGEQVTMTCSASSSVGYMNWYQQKPGSSPRLLIYDTSNLASGVPVHFSGSGSGTSYSLTISRMEAAFAATYYCQQWYVYPYTFGGGTKLEIKR
notes: as for B1
B6: S009-F7.21.16 (antibody, human IgG1, kappa, V domains shown)
VH: QVQLQQPGTELVKPGASVKLSCKASGYTFTTFWMHWVKQRPGQGLEWIGGVNPTNGGTNYNEKFRTKATLTVDKSSTTADMQLSSLTSEDSAVYYCAPHYISSRPGFAYWGQGTLVTVSG
VL: DIVMTQSQKFMSTSGGDRVSVTCKASQNVGTNVAWYQQKPGQSPKALIYSASYRYSGVPDRFTGSGSGTDFILTISNVQSEDLAEYFCQQYNSYPLTFGGGTKLEIKR
notes: as for B1
B7: S009-F7.48.1 (antibody, human IgG1, kappa, V domains shown)
VH: QVQLQQPGTELVKPGASVKLSCKASGYTFTSYWMHWVKQRPGQGLEWIGNINPSNGGTNNNENFKSKATLTVDTSSSTAYMQLSSLTSEDSAVYYCVRNGYHGYWYFDVWGTGTTVTVSS
VL: B6 VL with G15V, K39Q, G66V, I72T
notes: as for B1
B8: S009-F7.25.19 (antibody, human IgG1, kappa, V domains shown)
VH: QVQLQQPGTELVKPGASVKLSCKASGYTFTSYWMHWVKQRPGQGLEWIGNIIPSNGGTKYNEKFKSKATLTVDKSSSTAYMQLSSLTSEDSAVYYCSPHYYGGSPGFAYWGQGTLITVSA
VL: B6 VL with G15V, T22I, I72T
notes: as for B1
B9: S009-F7.30.5 (antibody, human IgG1, kappa, V domains shown)
VH: QVQLQQPKTELVKPGASVKLSCKASGYIFTTYWMHWVKQRPGQGLEWIGNVNPSNGGTMYNEKFERRATLTVDKSSSTADMQLSSLTSEDSAVYYCVPHYIGSRPGFAYWGQGTLVTVSG
VL: B6 VL with G15V, Q38H, I48L, I72T, S76T
notes: as for B1
B10: S009-F7.33.24 (antibody, human IgG1, kappa, V domains shown)
VH: B6 VH with T31S, F32Y, G50N, T54S, T58S, R65K, T66N, T77S, S84N, S102G
VL: B6 VL with G15V, V33I, I72T, S76T, L104V
notes: as for B1
B11: S009-F7.65.13 (antibody, human IgG1, kappa, V domains shown)
VH: EVQLQQSGPELVKPGTSVKILCKASGDTFTAYNMDWVKQRHGQSLEWIGDINPNTDSTIYNQKFEGKAILTVDKSSSTAYMELRSLTSEDTAVYYCARRKLGRGYFDYWGQGTTLTVSS
VL: QIVLTQSPAIMSASPGEKVTMTCSVNLSVRYIYWYQQKPGSSPRLLIHDTSNLASGVPVRFSGSGSGTSYSLTISRMEAEDAATYYCQQWSSFPYTFGGGTKLEIKR
notes: as for B1
B12: S009-F7.11.11 (antibody, human IgG1, kappa, V domains shown)
VH: EVQLQQSGPELVKPGASVKIPCKASGYTITDYNMDWVKQSRGKSLEWIGDVFPYNGDSIYNQKFEGRATLTVDKYSSTAYMELRGLTSEDTAVYFCARRKTGTGYFDVWGTGTTVTVSS
VL: QLVLTQSPAIMSASPGEKVTLTCSASSSVSSTYLSWYLQKPGSSPKLWIYSTSNLASGVPARFSGSGSGTSYSLTISSMEAEDAASYFCHQWSSYPYTFGGGTKLEIKR
notes: as for B1
B13: S009-F7.61.21 (antibody, human IgG1, kappa, V domains shown)
VH: DVQLQQSGPELVEPGASVRIPCKAAGHTFTDYNVDWVKQSHGQSLEWIGDVNPNTDGAIYNQKFEGKATLTVDTSSSTAYMELRSLTSEDTAVYFCARRRLGQGGFDSWGQGTTLTVSS
VL: B12 VL with L2V, S24G, V29L, S30I, T32K, S35Y, L38Q, L105V
notes: as for B1
B14: S009-F7.44.20 (antibody, human IgG1, kappa, V domains shown)
VH: EVQLQQSGPELVKPGASVKIPCKASGYTFTDYNMDWVKQSHGKSLEWIGDINPSTGGTIYNQKFNGKATLTEDKSASTVYMEFRSLTSDDTAVYYCARRRIGTGYFDVWGTGTTVTVSS
VL: B12 VL with L2I, I10L, S30I, T32S, L38Q, W48L, S51R, Y95F
notes: as for B1
B15: S009-F7.12.13 (antibody, human IgG1, kappa, V domains shown)
VH: EVQLQQSGPELVKPGASVKIPCKASGYTFTDYNMDWVKQSHGKGLEWIGDINPNTDDTIYNQKFNGKATLTVDKSSSTAYMELRSLTSEDTAVYYCSRRLIGTGYFDVWGTGTTVTVSS
VL: B12 VL with L2I, S30I, S35C, L38R, K46E, S94N, E106G, I107M
notes: as for B1
B16: S009-F7.26.15 (antibody, human IgG1, kappa, V domains shown)
VH: DVQLQESGPGLVKPSQTVFLTCTVTGISITTGNYRWSWIRQFPGNKLEWIGYIYYTGFITYNPSLTSRTTITRDTPKNQFFLEMKSLTAEDTATYYCARDDYDYDVFAYWGQGTLVTVSA
VL: DIQMTQSPASLSASVGETVTITCRASGNIHNYLAWYHQKQGKSPQFLVYKAKTLADGVPSRFSGSGSGTQYSLKINRLQPEDFGSYYCQHFLSIPLTFGAGTKLELKR
notes: as for B1
B17: S009-F7.6.17 (antibody, human IgG1, kappa, V domains shown)
VH: QVQLQQSGAELARPGASVKMSCKASGYTFTTYTMHWVKQRPGQGLEWIGYISPTGDFTKYNQKFKDKATLTTDKSSNTAFMQLSSLTSEDSAVYYCARWNGTVWFAYWGQGTLVTVSA
VL: DIVMTQSQKFMSTSVGDRVTVTCKASQALGTNVAWYQQKPGQSPKVLIYSASYRYSGVPYRFAGGGSGTDFTLTITNVQSEDLAEYFCQQYNNYPLTFGAGTKLELKR
notes: as for B1
B18: S009-F7.23.19 (antibody, human IgG1, kappa, V domains shown)
VH: EVKLVESGGGLVQPGGSLSLSCAASGFTFTDYYMSWVRQPPGKALEWLGFIRSKANAYTTEYSASVKGRFTISRDNSQSILYLQMNDLRAEDSATYYCARYYYYGSGYVWYFDVWGTGTTVTVSS
VL: B6 VL with G15V, N28S, S43F, I72T, S76I, G100A, I106L
notes: as for B1
B19: S009-F2.38.12 (antibody, human IgG1, kappa, V domains shown)
VH: QVQLQQPGTELVKPGASVKLSCKASGYTFTSYWMHWVKQRPGQGLEWIGNINPSNGGTNYNEKIKNKATLTVDKSSSTAYMQLSSLTSEDSAVYYCARWNYYGNYPFDYWGQGTTLTVSS
VL: DIVMTQSQKFMSTTVGDRVSITCKASQNVGTAVAWYQQKPGQSPKLLIYSASNRYTGVPDRFTGSGSGTDFTLTISNMQSEDLADYFCQQYSSYPLTFGAGTKLELKR
notes: Human-murine chimeric antibody, human IgG1/kappa constant regions

Positions count from the first letter of the chain named.

The first assay has as its target T1, human MSLN-FL-his protein (human, UniProt Q13421 296-580).
T1 construct: made in HEK293E cells, purified on nickel column; also called hMSLN-FL-his; human MSLN full-length protein; not shown: His tag
In words: SPR (Biacore), antibody captured on Protein A chip.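 Note: flow cell at 25 °C, antigen injected for 240 s at five concentrations from 200 nM downward, dissociation followed up to 600 s, double-referenced, fitted with Langmuir 1:1 model.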 On the technique in general: SPR reads the build-up and loss of mass on a sensor chip optically.
T1 sequence (Q13421 other isoform, or with tags, fused parts or gaps): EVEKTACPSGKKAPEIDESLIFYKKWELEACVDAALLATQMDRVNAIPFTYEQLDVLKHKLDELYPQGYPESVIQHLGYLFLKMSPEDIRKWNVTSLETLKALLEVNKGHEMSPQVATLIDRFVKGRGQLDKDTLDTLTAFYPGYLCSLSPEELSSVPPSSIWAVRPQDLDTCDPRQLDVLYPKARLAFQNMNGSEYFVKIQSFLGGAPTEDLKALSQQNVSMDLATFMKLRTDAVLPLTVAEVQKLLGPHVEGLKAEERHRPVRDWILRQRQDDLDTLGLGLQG
For B1, the affinity, expressed as Kd, was 6.51 nM; the koff stood at 0.00447 s⁻¹; the on-rate constant (kon) came to 687000 M⁻¹ s⁻¹.
On the same counts, the results for B2 are 0.418 nM, 8.35e-05 s⁻¹ and 200000 M⁻¹ s⁻¹.
In the case of B3, the Kd is 0.602 nM, the koff was found to be 0.00065 s⁻¹ and the on-rate constant (kon) turned out to be 1.08e+06 M⁻¹ s⁻¹.
Regarding B4, binding was put at a Kd of 13.1 nM, the off-rate constant (koff) is 0.00236 s⁻¹ and the kon is 180000 M⁻¹ s⁻¹.
The molecule B5 gave a Kd of 3.27 nM, a koff of 0.00065 s⁻¹ and a kon of 199000 M⁻¹ s⁻¹.
For B6, in that order: 1.69 nM, 0.000773 s⁻¹ and 458000 M⁻¹ s⁻¹.
Molecule B7 showed a Kd of 17.8 nM, a koff of 0.000413 s⁻¹ and a kon of 23100 M⁻¹ s⁻¹.
B8 returned a Kd of 2.71 nM, an off-rate (koff) of 0.00113 s⁻¹ and a kon of 417000 M⁻¹ s⁻¹.
For B9, in that order: 3.83 nM, 0.000705 s⁻¹ and 184000 M⁻¹ s⁻¹.
Molecule B10 gave a Kd of 10.2 nM, a koff of 0.00506 s⁻¹ and an on-rate (kon) of 498000 M⁻¹ s⁻¹.
In turn, B11 had an equilibrium dissociation constant (Kd) of 1.44 nM, a dissociation rate constant (koff) of 0.000538 s⁻¹ and an association rate constant (kon) of 374000 M⁻¹ s⁻¹.
B12 returned a Kd of 0.181 nM, a koff of 0.00024 s⁻¹ and an on-rate (kon) of 1.33e+06 M⁻¹ s⁻¹.
Molecule B13 yielded a dissociation constant Kd of 5.03 nM, a dissociation rate constant (koff) of 0.00154 s⁻¹ and an on-rate (kon) of 306000 M⁻¹ s⁻¹.
As to B14, binding was put at a Kd of 3.01 nM, the off-rate (koff) worked out at 0.00106 s⁻¹ and the kon turned out to be 351000 M⁻¹ s⁻¹.
Consider B15, for which the affinity, expressed as Kd, was 40.5 nM; the off-rate constant (koff) amounted to 0.00892 s⁻¹; the association rate constant (kon) came out at 220000 M⁻¹ s⁻¹.
Regarding B16, the dissociation constant (Kd) turned out to be 0.2 nM, the koff worked out at 0.000975 s⁻¹ and the on-rate (kon) amounted to 4.88e+06 M⁻¹ s⁻¹.
B17 yielded a Kd of 1.18 nM, a koff of 0.000389 s⁻¹ and an on-rate constant (kon) of 329000 M⁻¹ s⁻¹.
Molecule B18 showed an equilibrium dissociation constant (Kd) of 13.6 nM, an off-rate (koff) of 0.00695 s⁻¹ and a kon of 511000 M⁻¹ s⁻¹.

In another assay the target is T2, human MSLN-FL-his protein (human, UniProt Q13421 296-580).
T2 construct: also called human MSLN full-length protein; hMSLN-FL-his; not shown: His tag
In words: ELISA, coated MSLN full-length.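 Note: binding of chimeric antibodies to plate-bound antigen, read by TMB colour after acid stop, antibody incubated 2 h at 37 °C, negative control antibody run alongside.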 Background: An ELISA detects its analyte on a solid surface through an enzyme-linked reagent.
T2 sequence (Q13421 other isoform, or with tags, fused parts or gaps): as above
For the molecule B19, the “OD450 at 0.0001 nM” value came to 0.06 OD450, the “OD450 at 0.001 nM” value amounted to 0.09 OD450, the “OD450 at 0.01 nM” value was 0.46 OD450 and the “OD450 at 0.1 nM” value was 1.85 OD450. Besides, the “OD450 at 1 nM” value amounted to 2.56 OD450, the “OD450 at 10 nM” value came out at 2.43 OD450, the “OD450 at 100 nM” value stood at 2.57 OD450 and the “OD450 at none (no antibody)” value was 0.06 OD450.

Broadly, the Kd is the free concentration of one partner at which half of the binding sites on the other are occupied at equilibrium, for simple one-to-one binding. High values mean weaker binding, low ones tighter binding. For orientation: koff means the rate constant with which the complex falls apart. Read a low koff as a long-lived complex. In general, kon refers to a measure of how fast the partners come together. Low values mean slower complex formation, high ones faster complex formation.
